Patent US6958240, “Inhibition of major groove DNA binding proteins by modified polyamides” (California Instiute of Technology)

What was measured:
[1] = molecular target: T1, GCN4 (222-281), bZIP DNA-binding domain (UniProt P03069 P03069:222-281); assay: EMSA; bound near saturation at 200 nM GCN4; 10 mM bisTris pH 7.0, 100 mM NaCl, 1 mM DTT, 1 mM EDTA, 50 ug/mL poly(dI-dC), 22 C; inhibited by polyamides 3, 5 and 13, not by 1 or 4; details: protein: synthetic; tags: none; prepared by solid phase peptide synthesis; chain copies: 2 (inferred); label: 5'-32P
T1 sequence (P03069 222-281, one chain of several): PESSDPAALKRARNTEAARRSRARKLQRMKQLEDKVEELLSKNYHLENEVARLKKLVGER
Description: (§1) For gel mobility shifts, polyamide was incubated with radiolabeled synthetic DNA duplex (10 kcpm) in 40 µL reaction volumes of bisTris (10 mM, pH 7.0), NaCl (100 mM), DTT (1 mM), EDTA (1 mM), and poly(dI-dC)·poly(dI-dC) (50 µg/mL) for 16 hours at 22° C. (20 mM MOPS, pH 7.0, 140 mM KCl, 10 mM NaCl, 1 mM MgCl_2, 1 mM spermine was used to model ionic conditions in vivo). GCN4 (222–281) was added and equilibrated for 30 minutes. Loading buffer (15% Ficoll, 0.025% bromophenol blue) (10 µL) was added and 10 µL was immediately loaded onto a running 8% (29:1, acrylamide:bis-acrylamide) polyacrylamide gel (0.5×TBE, 280 V, 0.8 mm, 13 cm). Sufficient separation of the free DNA and the DNA·GCN4 (222–281) complexes was achieved within 45 minutes. Gels were dried and exposed to a storage phosphor screen (Molecular Dynamics) (Johnston, et al. (1990) *Electrophoresis* 11, 355).
(§2) ImPyPyPy-γ-PyPyPyPy-β-polyamides (1 and 3) target the six base pair 5'-TGTTAT-3' site adjacent to the GCN4 binding site of ARE-1 (FIG. 6). ImImPyPy-γ-ImPyPyPy-β-polyamides (2 and 4) were designed to bind 5'-TGGTCT-3' adjacent to the GCN4 site in ARE-2 (FIG. 6).
(§3) The ability of polyamides to inhibit GCN4 (222–281) binding was evaluated using the gel mobility shift assay. […]

[2] = molecular target: T1, GCN4 (222-281), bZIP DNA-binding domain; assay: EMSA; bound near saturation at 200 nM GCN4; same buffer, 22 C; inhibited by matched polyamides 4 and 6, not by 2 or 3; details: protein: synthetic; tags: none; prepared by solid phase peptide synthesis; chain copies: 2 (inferred); label: 5'-32P
Description: as §1, §2, §3

B1: ARE-1 (dsDNA)
DNA 1: CCGGATCCATGGTTGCTGACTAATTGTTATCCTCTAGAGTCGACC
DNA 2: GGTCGACTCTAGAGGATAACAATTAGTCAGCAACCATGGATCCGG
binding result [1]: binds

B2: ARE-2 (dsDNA)
DNA 1: CCGGATCCATGGTTGCTGACTAATTGGTCTCCTCTAGAGTCGACC
DNA 2: GGTCGACTCTAGAGGAGACCAATTAGTCAGCAACCATGGATCCGG
binding result [2]: binds
